Experimental data as given in the supplement of paper PMC7877785.
± gives the uncertainty stated by the source.

Assay: self-splicing fitness, log relative to wild type (ln ratio); higher = more splicing; Tetrahymena group I intron in knt gene, E. coli kanamycin selection, DiMSum; sequences stand for … in CUCUCU…GGAGGGAAAAGUUAUCAGGCAUGCACCUGGUAGCUAGUCUUUAAACCAAUAGAUUGCAUCGGUUUAAAAGGCAAGACCGUCAAAUUGCGGGAAAGGGGUCAACAGCCGUUCAGUACCAAGUCUCAGGGGAAACUUUGAGAUGGCCUUGCAAAGGGUAUGGUAAUAAGCUGACGGACAUGGUCCUAACCACGCAGCCAAGUCCUAAGUCAACAGAUCUUCUGUUGAUAUGGAUGCAGUUCACAGACUAAAUGUCGGUCGGGGAAGAUGUAUUCUUCUCAUAAGAUAUAGUCGGACCUCUCCUUAAUGGGAGCUAGCGGAUGAAGUGAUGCAACACUGGAGCCGCUGGGAACUAAUUUGUAUGCGAAAGUAUAUUGAUUAGUUUUGGAGUACUCGUGGUCG
Summary of the method: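 Pooled colonies went to amplicon sequencing on an Illumina HiSeq 2500 after six replicate transformations. The plates were LB agar with 100 μg/mL carbenicillin, 50 μM IPTG and 0.2% rhamnose, with or without 25 μg/mL kanamycin, incubated overnight at 37°C or 30°C. The E. coli BL21(DE3) library had all eight P1ex-region intron nucleotides randomised, the intron placed in the knt kanamycin-resistance gene on pET-22b(+). DiMSum fitness is the error-weighted combination of replicate fold changes, kanamycin against none, normalised to wild type.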

Row | Sequence | self-splicing fitness (ln) (30 °C) | self-splicing fitness (ln) (37 °C)
1 | CUUGAGCAAUAUUACGGUUG | -2.28 ± 0.097 | -1.95 ± 0.14
2 | AACGAGCAAUAUUACGAACC | -3.57 ± 0.49 | -1.66 ± 0.35
3 | GGUGAGCAAUAUUACGUGGC |  | -2.59 ± 0.33
4 | GGACAGCAAUAUUACGUUCG | -0.223 ± 0.076 | 0.0323 ± 0.095
5 | CGAGAGCAAUAUUACGCACA | -2.47 ± 0.27 | 
6 | CUUGAGCAAUAUUACGUUAC | -3 ± 0.33 | -2.44 ± 0.32
7 | AUAUAGCAAUAUUACGAAUU | -2.52 ± 0.16 | -0.909 ± 0.14
8 | GAGCAGCAAUAUUACGUUGU | -3.37 ± 0.14 | -2.16 ± 0.15
9 | CGCAAGCAAUAUUACGGACG | -1.45 ± 0.1 | -0.532 ± 0.11
10 | UCGGAGCAAUAUUACGGUCU | -0.916 ± 0.37 | 
11 | UCGAAGCAAUAUUACGGUUG | -1.65 ± 0.097 | -0.93 ± 0.14
12 | AGAUAGCAAUAUUACGCCAG | -3.6 ± 0.5 | -1.78 ± 0.39
13 | CCAUAGCAAUAUUACGCUAU |  | -3.35 ± 0.37
14 | GUCGAGCAAUAUUACGAAAC | -2.72 ± 0.41 | -0.657 ± 0.37
15 | AGCAAGCAAUAUUACGGCAG | -0.65 ± 0.065 | -0.357 ± 0.082
16 | UAAGAGCAAUAUUACGGUGC | -3.43 ± 0.28 | 
17 | GUCCAGCAAUAUUACGUUUG | -2.85 ± 0.11 | -0.981 ± 0.1
18 | AUAAAGCAAUAUUACGAAUU | -1.23 ± 0.064 | -0.731 ± 0.089
19 | GCUCAGCAAUAUUACGGUAG | -2.79 ± 0.26 | -1.89 ± 0.21
20 | CAGCAGCAAUAUUACGAGGG | -3.15 ± 0.097 | -1.12 ± 0.093
21 | ACGCAGCAAUAUUACGGGGC | -3.8 ± 0.24 | -3.15 ± 0.28
22 | UAUGAGCAAUAUUACGAGAC | -2.85 ± 0.39 | -2.4 ± 0.32
23 | AUAGAGCAAUAUUACGUCGG | -3.26 ± 0.14 | -2.27 ± 0.17
24 | GGUAAGCAAUAUUACGCAUA | -1.19 ± 0.15 | 0.0315 ± 0.17
25 | AACUAGCAAUAUUACGACGC | -0.567 ± 0.1 | -0.205 ± 0.15

Row | Sequence | self-splicing fitness (ln) (30 °C) | self-splicing fitness (ln) (37 °C)
26 | AUGUAGCAAUAUUACGCUAG | -1.61 ± 0.21 | -0.5 ± 0.22
27 | CGCGAGCAAUAUUACGUUGG | -3.22 ± 0.17 | -2 ± 0.2
28 | CACCAGCAAUAUUACGGACU | -2.98 ± 0.11 | -2 ± 0.11
29 | AAUGAGCAAUAUUACGCCGG | -3.52 ± 0.47 | -2.35 ± 0.36
30 | UCUCAGCAAUAUUACGUCUU | -3.25 ± 0.17 | -2.83 ± 0.15
31 | AUCUAGCAAUAUUACGCGCG | -0.762 ± 0.095 | -0.257 ± 0.12
32 | CCAAAGCAAUAUUACGAGUA | -3.15 ± 0.23 | -2.6 ± 0.23
33 | CAUUAGCAAUAUUACGAUUU | -2.32 ± 0.13 | -1.56 ± 0.15
34 | CCGCAGCAAUAUUACGUCGG | -3.9 ± 0.21 | -2.28 ± 0.2
35 | CCUCAGCAAUAUUACGCAUG | -1.83 ± 0.092 | -0.467 ± 0.086
36 | GGGCAGCAAUAUUACGUGCA | -1.62 ± 0.079 | 0.116 ± 0.098
37 | UUGGAGCAAUAUUACGAUGU | -1.71 ± 0.44 | -1.83 ± 0.35
38 | GAUUAGCAAUAUUACGGCAA | -0.324 ± 0.15 | -0.0501 ± 0.18
39 | AAUCAGCAAUAUUACGAACU | -0.125 ± 0.05 | 0.389 ± 0.077
40 | CUGUAGCAAUAUUACGUAAA | -3.52 ± 0.3 | -1.6 ± 0.23
41 | ACUGAGCAAUAUUACGCUUG | -3.28 ± 0.3 | -2.75 ± 0.31
42 | UGGCAGCAAUAUUACGGUCA | -2.12 ± 0.18 | -1.58 ± 0.15
43 | AGUUAGCAAUAUUACGUGAG | -1.53 ± 0.12 | -1.86 ± 0.14
44 | AUAGAGCAAUAUUACGCCUA | -0.415 ± 0.11 | 0.144 ± 0.15
45 | UUACAGCAAUAUUACGACGG | -0.531 ± 0.097 | 0.113 ± 0.13
46 | CCGAAGCAAUAUUACGAUUG | -1.16 ± 0.093 | -0.0885 ± 0.095
47 | ACAAAGCAAUAUUACGCCGG | -0.52 ± 0.065 | -0.282 ± 0.083
48 | GGAGAGCAAUAUUACGUCUG | -1.13 ± 0.2 | -0.491 ± 0.25
49 | AGCCAGCAAUAUUACGGUAG | -2.6 ± 0.097 | -0.58 ± 0.085
50 | UUCUAGCAAUAUUACGCACA | -0.654 ± 0.27 | -0.205 ± 0.23

Row | Sequence | self-splicing fitness (ln) (30 °C) | self-splicing fitness (ln) (37 °C)
51 | UUACAGCAAUAUUACGGAUU | -3.81 ± 0.24 | -2.08 ± 0.16
52 | AAUAAGCAAUAUUACGUAGC |  | -2.38 ± 0.27
53 | CGAAAGCAAUAUUACGCCAA | -2.65 ± 0.2 | -2.41 ± 0.22
54 | UAAAAGCAAUAUUACGAUAC | -2.36 ± 0.31 | -3.93 ± 0.46
55 | UUUGAGCAAUAUUACGAUAC | -3.55 ± 0.48 | 
56 | UCCCAGCAAUAUUACGUGUA | 0.0644 ± 0.061 | -0.0313 ± 0.073
57 | UUAUAGCAAUAUUACGAGUU |  | -1.96 ± 0.2
58 | CUACAGCAAUAUUACGCUCG | -1.49 ± 0.089 | -1.46 ± 0.13
59 | UACCAGCAAUAUUACGAAUA | -0.776 ± 0.086 | 0.199 ± 0.093
60 | UCACAGCAAUAUUACGACUA | -1.21 ± 0.14 | -0.431 ± 0.12
61 | CAAAAGCAAUAUUACGAUCG | 0.0933 ± 0.07 | 0.514 ± 0.09
62 | CGGAAGCAAUAUUACGCGGA | -2.73 ± 0.28 | -2.93 ± 0.43
63 | ACGCAGCAAUAUUACGCGUU | -3.56 ± 0.14 | -2.42 ± 0.18
64 | GUUAAGCAAUAUUACGUCGG | -2.75 ± 0.2 | -2.55 ± 0.25
65 | AUCCAGCAAUAUUACGGCUG | -3.69 ± 0.39 | -2.43 ± 0.27
66 | GCACAGCAAUAUUACGACCC | 0.615 ± 0.18 | 0.472 ± 0.25
67 | CACUAGCAAUAUUACGUGUU | -4.69 ± 0.23 | -2.88 ± 0.16
68 | ACCCAGCAAUAUUACGUGAA | -0.191 ± 0.041 | 0.202 ± 0.063
69 | CACGAGCAAUAUUACGCCUC | -3.79 ± 0.26 | -1.37 ± 0.23
70 | GCAGAGCAAUAUUACGUAGC | -3.31 ± 0.25 | -2.77 ± 0.22
71 | GAACAGCAAUAUUACGUACC | -0.94 ± 0.27 | 0.0452 ± 0.3
72 | CUUUAGCAAUAUUACGUGGG | -3.1 ± 0.17 | -2.96 ± 0.27
73 | UCUUAGCAAUAUUACGCAAU |  | -2.53 ± 0.36
74 | CGCCAGCAAUAUUACGGGGG | -3 ± 0.16 | -2.17 ± 0.2
75 | UCGGAGCAAUAUUACGUGUA |  | -1.29 ± 0.2

Row | Sequence | self-splicing fitness (ln) (30 °C) | self-splicing fitness (ln) (37 °C)
76 | GUUUAGCAAUAUUACGGUCG | -1.35 ± 0.076 | -0.636 ± 0.099
77 | GUAUAGCAAUAUUACGUAGA |  | -2.07 ± 0.32
78 | UGAUAGCAAUAUUACGCGCA | -0.408 ± 0.091 | 0.2 ± 0.1
79 | UUAUAGCAAUAUUACGGAGC |  | -2.95 ± 0.43
80 | GCGUAGCAAUAUUACGAAGA | -1.89 ± 0.21 | -1.51 ± 0.24
81 | UACCAGCAAUAUUACGCGCA | 0.0526 ± 0.065 | -0.42 ± 0.08
82 | GUGAAGCAAUAUUACGUGAA | -2.63 ± 0.11 | -0.504 ± 0.12
83 | UAACAGCAAUAUUACGUCGG | -0.858 ± 0.066 | -0.53 ± 0.08
84 | UAUAAGCAAUAUUACGGUAG | -1.59 ± 0.077 | -0.912 ± 0.095
85 | GACAAGCAAUAUUACGCUCG | -1.47 ± 0.17 | -0.891 ± 0.21
86 | AGGGAGCAAUAUUACGGUGC | -4.76 ± 0.45 | -3.06 ± 0.47
87 | GGUGAGCAAUAUUACGGUCA | -1.77 ± 0.32 | -1.79 ± 0.38
88 | AAUAAGCAAUAUUACGGUGC | -3 ± 0.15 | -2.26 ± 0.23
89 | GACAAGCAAUAUUACGGAUC | -1.19 ± 0.13 | -0.182 ± 0.15
90 | GUUGAGCAAUAUUACGUACA |  | -2.37 ± 0.49
91 | UAAUAGCAAUAUUACGUCGA | -2.4 ± 0.17 | -0.993 ± 0.16
92 | AACGAGCAAUAUUACGGCUG | -1.6 ± 0.14 | -0.126 ± 0.16
93 | CGCUAGCAAUAUUACGAUCU | -0.867 ± 0.1 | -1.49 ± 0.11
94 | AGCGAGCAAUAUUACGACUU | -0.736 ± 0.078 | 0.37 ± 0.1
95 | GCGCAGCAAUAUUACGCGUU | -2.99 ± 0.14 | -2.06 ± 0.15
96 | AACAAGCAAUAUUACGAAGA | -2.78 ± 0.12 | -2.12 ± 0.14
97 | ACAAAGCAAUAUUACGUCCU | -0.488 ± 0.07 | -0.399 ± 0.08
98 | ACUGAGCAAUAUUACGGAUC |  | -1.91 ± 0.35
99 | GAUCAGCAAUAUUACGCAAU | -1.56 ± 0.1 | 0.129 ± 0.11
